Columns and labels:
[1] = substrate: Nc1ncnc2nc[nH]c12; assay: purified protein; type: biochemical, Helicobacter pylori; conditions: 100 mM HEPES pH 7.5, 30°C, native protein
[2] = substrate: Nc1nc2c(ncn2[C@@H]2O[C@H](COP(=O)(O)OP(=O)(O)OP(=O)(O)O)[C@@H](O)[C@H]2O)c(=O)[nH]1; assay: fluorimetric neopterin detection after iodine oxidation and alkaline phosphatase; type: biochemical, Helicobacter pylori; conditions: 100 mM sodium citrate pH 4.0, 30°C, 2.5 mM EDTA
Description: fluorimetric neopterin detection after iodine oxidation and alkaline phosphatase on HP0959

[3] = substrate: [H][C@@]12COP(=O)(O)O[C@@]1([H])[C@@H](O)[C@H](n1cnc3c(=O)[nH]c(N)nc31)O2; assay: alkaline phosphatase-coupled phosphate release, malachite green; type: biochemical, Helicobacter pylori; conditions: 0.1 mM MnCl2, pH 4.0-4.5, 30°C
[4] = substrate: O=[N+]([O-])c1ccc(OP(=O)(O)Oc2ccc([N+](=O)[O-])cc2)cc1; assay: purified protein; type: biochemical, Helicobacter pylori; conditions: 1.0 mM MnCl2, 100 mM sodium citrate pH 4.5 (4.0 in Figure 1 legend), 30°C
[5] = substrate: Cc1cc(=O)oc2cc(NC(=O)[C@H](CCCNC(=N)N)NC(=O)[C@@H](N)Cc3ccccc3)ccc12; assay: purified protein; conditions: 100 mM sodium citrate pH 4.5, 30°C, 5 mM CaCl2, 0.1% Brij
[6] = substrate: Nc1nc2c(ncn2[C@@H]2O[C@H](COP(=O)(O)OP(=O)(O)OP(=O)(O)O)[C@@H](O)[C@H]2O)c(=O)[nH]1; assay: phosphate release, malachite green; type: biochemical, Helicobacter pylori; conditions: 10 mM MgCl2, 10% glycerol, 100 mM sodium acetate pH 6.0, 30°C
Description: phosphate release, malachite green on HP1079

B1: HP0267 (native protein) (Helicobacter pylori 26695) (protein)
chain: MQEIIGASLVFLCNEKCEVLEDYGVVFDEKIVEIGDYQSLTLKYPHLKAQFFENSVLLPAFINAHTHFEFSNNKASFDYGSFSGWLGSVLNNGGAILENCQGAIQNAISTQLKSGVGSVGAISNHLIEVNLLKESPLNAVVFLEFLGSSYSLEKLKAFEAKFKELKDLEDKKLKAALAVHAPYSVQKDMALSVIQLAKDSQSLLSTHFLESLEELEWVENSKGWFENFYQHFLKESHFKSLYKGANDYIDMFKDTHTLFVHNQFASLEALKRIKSQVKNAFLITCPFSNRLLSGQALDLERTKEAGLSVSVATDGLSSNISLSLLDELRAFLLTHNMPLLELAKIALLGATRHGAKALALNNGEIEANKRADLSVFGFNEKFTKEQAILQFLLHAKEVECLFLGGKRVI
notes: native protein captured from H. pylori lysate with adenine-coated gold nano-particles, gel filtration; no tag
[1]
  Km: 2040 ± 160 µM
  Vmax: 3 µM/min
  kcat: 0.00783 ± 0.00217 s⁻¹
  kcat/Km: 4 M⁻¹ s⁻¹

B2: HP0959 (Helicobacter pylori 26695) (protein)
chain: MALVKEVLVVLNRLSPFELQESWDNSGLNVGSENSEFSEIVACLEITLKIALNAPQNALIITHHPLIFKPLKTLNDEIYPGNILKILIQKNVSVISMHTNFDKTHLNKHFAHALLEFDGLVEKGLMLVKENANIEFDALVKKIKSSLGVGSLACVKSSQTIKDLAFVCGSGASMFSSLKAQSCLITGDVKYHDAMIAQSLGISLIDATHYYSERGFALIVAEILHSFNYLVTIENFKNPLQII
notes: native protein captured with GTP/dihydroneopterin triphosphate-coated nano-particles (co-captured with HP0803); His6 recombinant also active
[2]
  Km: 40 ± 5 µM
  Vmax: 1420 µM/min
  kcat: 43.2 ± 0.483 s⁻¹
  kcat/Km: 1.08e+06 M⁻¹ s⁻¹

B3: HP1042 (Helicobacter pylori 26695) (protein)
chain: MMQVYHLSHIDLDGYACQLVSKQFFKNIQCYNANYGREVSARIYEILNAIAQSKESEFLILVSDLNLNLNEAEYLQDKIQEHRLQNKNIQIQLLDHHISGKEVAESFHWYFLDINRCATKIVYEFLKKHYAILEPKNTTWLEPLVEMVNSVDIWDTQGYGFELGKVCMRMINQSSELNRFMFDDENRNYKLKLLEEVKNYLFLENAPVAYDNDLFKLKKIALGGDPDAETMDNISSNAQTHLLSLKKHDCSVYYQDKKGFLSYSMGGISVLANLFLTQNPDFDFYMDVNAKGNVSLRANGNCDVCELSQMCFNGGGHRNASGGKIDGFRESFNYRDIKEQIEEIFNNA
notes: native protein captured with cAMP-coated nano-particles; His6 recombinant also made
[3]
  Km: 820 ± 150 µM
  Vmax: 5130 µM/min
  kcat: 15.9 ± 1.37 s⁻¹
  kcat/Km: 19500 M⁻¹ s⁻¹
[4]
  Km: 530 ± 40 µM
  Vmax: 1130 µM/min
  kcat: 18.1 ± 0.2 s⁻¹
  kcat/Km: 34100 M⁻¹ s⁻¹

B4: HP1037 (Helicobacter pylori 26695) (protein)
chain: MKGLERESHFTLNENAMFFECAYSCDNALFLQLDDRSFFITDSRYTQEAKESVQPKNGVLAEVVESSDLVQSAIDLIVKSSVKKLFFDPNQVNLQTYKRLNSALGDKVALEGVPSYHRQKRIIKNEHEIQLLKKSQALNVEAFENFAEYVKKIFDEKESLSERYLQHKVKDFLTREGVYDLSFEPILALNANASKPHALPSAKDFLKAEHSILLDMGIKYERYCSDRTRTAFFDPKDFVFKREQSFKDKERQKIYDIVKEAQEKAISGIRAGMTGKEADSLARGVISDYGYGQYFTHSTGHGIGLDIHELPYISSRSETILEEGMVFSVEPGIYIPGFFGVRIEDLVVIKNSRSELL
[5]
  Km: 7430 ± 360 µM
  Vmax: 750 µM/min
  kcat: 0.17 s⁻¹
  kcat/Km: 20 M⁻¹ s⁻¹

B5: HP1079 (Helicobacter pylori 26695) (protein)
chain: MIQSVRIKNFKNFKNTKIDGFTKLNIITGQNNAGKSNLLEALYYLVGKSMHPCTNVLEIYDNIRKEPLTSESKSLMFYGLDTKEEIQIVTTLDNNQTLDLQIKFIASENQKVIESQIIPTAEQTQMSSQLNFTLKKNNEEIYNDHLNIAKVPNFPPIPNQSGYNRQFKNFDSNQLQKLLPFESAVIIPSDVVYRQAHMIQAVSKICSNNQLEEELNKHLNQFDNNIQAISFNTNNQLKLKVKDIKEKVPLSVFGDGLKKYLHIVSAFMADNAKTIYIDEVENGLHFSRMRLLLKNTIDFINNNKDGNLQVFMTTHSQEFIEILDQVIREKDFAHQTKLFCLKQDDQYVIPRTYYGENLEYYFENEENLFG
notes: native protein captured with GTP-coated nano-particles; His6 recombinant also made
[6]
  Km: 580 ± 50 µM
  kcat: 0.0095 ± 0.002 s⁻¹
  kcat/Km: 20 M⁻¹ s⁻¹
